B1: Myc-Mal-TIR wild type (TIR domain of human MyD88 adaptor-like protein, residues 79-221, double-tagged with His6 and Myc) [human] / GST-Mal-TIR (TIR domain of human Mal, residues 79-221, GST fusion) [human] (parent)
chain 1: SSRWSKDYDVCVCHSEEDLVAAQDLVSYLEGSTASLRCFLQLRDATPGGAIVSELCQALSSSHCRVLLITPGFLQDPWCKYQMLQALTEAPGAEGCTIPLLSGLSRAAYPPELRFMYYVDGRGPDGGFRQVKEAVMRYLQTLS
chain 2: B1 chain 1

Variants of: B1
Experiment: GST pull-down, quantified Western blot
Conditions: with GST-Mal-TIR (TIR domain of human Mal, residues 79-221, GST fusion) [human]; n = 3 separate experiments; parent: 1; read off a plot

| ratio to parent | Variant |
| --- | --- |
| 1.2 | chain 1 D9A |
| 0.6 | chain 1 W78A |
| 0.91 | chain 1 R114A |
| 0.41 | chain 1 Y81A |

— article PMC3317499
